Reference: paper doi:10.1101/2024.06.05.597643, “Identification and characterization of a human MORC2 DNA binding region that is required for gene silencing” (bioRxiv, 2024)

Legend:
[1] = target: T1, MORC2 wild type, dephosphorylated (Homo sapiens) (UniProt Q9Y6X9); test: fluorescence anisotropy; conditions: FA: 50 mM NaCl, 3 mM MgCl2, 20 mM Na-HEPES pH 7.4, 1 mM TCEP, 10% glycerol, 0.025 mM ZnCl2, 50 ug/ml BSA, 1 nM nucleic acid, room temperature
T1 sequence: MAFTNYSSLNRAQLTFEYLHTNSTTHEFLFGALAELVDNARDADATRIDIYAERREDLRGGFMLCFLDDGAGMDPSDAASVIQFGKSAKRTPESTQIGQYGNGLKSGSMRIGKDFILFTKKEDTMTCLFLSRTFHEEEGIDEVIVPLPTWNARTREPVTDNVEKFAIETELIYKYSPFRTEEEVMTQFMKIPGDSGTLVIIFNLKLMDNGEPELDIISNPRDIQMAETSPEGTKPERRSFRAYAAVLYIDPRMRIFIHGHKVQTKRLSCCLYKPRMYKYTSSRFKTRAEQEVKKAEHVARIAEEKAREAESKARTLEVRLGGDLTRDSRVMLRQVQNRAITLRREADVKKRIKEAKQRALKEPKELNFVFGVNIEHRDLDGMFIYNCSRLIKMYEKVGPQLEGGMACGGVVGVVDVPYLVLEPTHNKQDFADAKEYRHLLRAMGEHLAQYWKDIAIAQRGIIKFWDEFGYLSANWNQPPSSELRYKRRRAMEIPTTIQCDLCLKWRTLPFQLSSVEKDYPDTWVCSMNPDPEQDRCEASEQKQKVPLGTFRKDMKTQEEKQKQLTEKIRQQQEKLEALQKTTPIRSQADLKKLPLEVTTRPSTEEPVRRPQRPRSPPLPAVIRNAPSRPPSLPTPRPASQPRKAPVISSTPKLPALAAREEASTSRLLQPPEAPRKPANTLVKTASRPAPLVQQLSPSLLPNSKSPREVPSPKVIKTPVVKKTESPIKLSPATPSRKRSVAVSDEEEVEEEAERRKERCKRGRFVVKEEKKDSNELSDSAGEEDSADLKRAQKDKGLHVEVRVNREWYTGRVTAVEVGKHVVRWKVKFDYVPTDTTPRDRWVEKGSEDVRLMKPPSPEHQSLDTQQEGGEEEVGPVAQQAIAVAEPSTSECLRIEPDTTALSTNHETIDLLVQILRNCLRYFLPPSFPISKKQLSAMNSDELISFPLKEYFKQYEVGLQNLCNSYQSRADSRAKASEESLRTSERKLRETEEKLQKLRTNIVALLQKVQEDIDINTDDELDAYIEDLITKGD

[2] = target: the molecule itself; test: SEC-MALS; coiled coil 3 1.5 mg/mL, 150 mM NaCl, 3 mM MgCl2, 20 mM Na-HEPES pH 7.4, 0.5 mM TCEP, 1.5% glycerol, 0.025 mM ZnCl2; Wyatt 010 column
[3] = target: the molecule itself; test: SEC-MALS; full-length MORC2 2 mg/mL, 150 mM NaCl, 3 mM MgCl2, 20 mM Na-HEPES pH 7.4, 0.5 mM TCEP, 1.5% glycerol, 0.025 mM ZnCl2, without AMP-PNP; Wyatt 030 column

## ATATCGATGTATATATCTGACACGTGCCTGGAGACTAGGGAGTAATCCCCTTGGCGGTTAAAACGCGGGGGACAGCGCGTACGTGCGTTTAAGCGGTGCTAGAGCTGTCTACGACCAATTGAGCGGCCTCGGCACCGGGATTCTGATAT (double strand) [Nucleosome on 2-601-2 DNA]
[1]
  Kd: 16 nM

B1: MORC2 coiled coil 3 (domain or fragment, human, UniProt Q9Y6X9 900-1032, looked up)
chain: ALSTNHETIDLLVQILRNCLRYFLPPSFPISKKQLSAMNSDELISFPLKEYFKQYEVGLQNLCNSYQSRADSRAKASEESLRTSERKLRETEEKLQKLRTNIVALLQKVQEDIDINTDDELDAYIEDLITKGD
notes: also called CC3; source: E. coli BL21 (DE3) RIL, purified (HisTrap, TEV cleavage, S75 SEC); not shown: His6, N-terminal, cleaved
[2]
  stoichiometry N: 2

B2: full-length human MORC2 (natural protein, UniProt Q9Y6X9 1-1032, looked up)
chain: MAFTNYSSLNRAQLTFEYLHTNSTTHEFLFGALAELVDNARDADATRIDIYAERREDLRGGFMLCFLDDGAGMDPSDAASVIQFGKSAKRTPESTQIGQYGNGLKSGSMRIGKDFILFTKKEDTMTCLFLSRTFHEEEGIDEVIVPLPTWNARTREPVTDNVEKFAIETELIYKYSPFRTEEEVMTQFMKIPGDSGTLVIIFNLKLMDNGEPELDIISNPRDIQMAETSPEGTKPERRSFRAYAAVLYIDPRMRIFIHGHKVQTKRLSCCLYKPRMYKYTSSRFKTRAEQEVKKAEHVARIAEEKAREAESKARTLEVRLGGDLTRDSRVMLRQVQNRAITLRREADVKKRIKEAKQRALKEPKELNFVFGVNIEHRDLDGMFIYNCSRLIKMYEKVGPQLEGGMACGGVVGVVDVPYLVLEPTHNKQDFADAKEYRHLLRAMGEHLAQYWKDIAIAQRGIIKFWDEFGYLSANWNQPPSSELRYKRRRAMEIPTTIQCDLCLKWRTLPFQLSSVEKDYPDTWVCSMNPDPEQDRCEASEQKQKVPLGTFRKDMKTQEEKQKQLTEKIRQQQEKLEALQKTTPIRSQADLKKLPLEVTTRPSTEEPVRRPQRPRSPPLPAVIRNAPSRPPSLPTPRPASQPRKAPVISSTPKLPALAAREEASTSRLLQPPEAPRKPANTLVKTASRPAPLVQQLSPSLLPNSKSPREVPSPKVIKTPVVKKTESPIKLSPATPSRKRSVAVSDEEEVEEEAERRKERCKRGRFVVKEEKKDSNELSDSAGEEDSADLKRAQKDKGLHVEVRVNREWYTGRVTAVEVGKHVVRWKVKFDYVPTDTTPRDRWVEKGSEDVRLMKPPSPEHQSLDTQQEGGEEEVGPVAQQAIAVAEPSTSECLRIEPDTTALSTNHETIDLLVQILRNCLRYFLPPSFPISKKQLSAMNSDELISFPLKEYFKQYEVGLQNLCNSYQSRADSRAKASEESLRTSERKLRETEEKLQKLRTNIVALLQKVQEDIDINTDDELDAYIEDLITKGD
notes: Cloned into both 438-B (N-terminal His6-TEV) and 438-C (N-terminal His6-MBP-TEV); the tag was removed with TEV protease; also called wildtype MORC2; dephosphorylated MORC2; not shown: His6, N-terminal, cleaved
[3]
  stoichiometry N: 2
